From patent EP4786493A1

Key:
[1] = target: recombinant human Claudin 18.2 protein (GenScript, Z03504) (human) (UniProt P56856); assay: indirect ELISA, plate coated with recombinant human Claudin 18.2, anti-human IgG Fc-HRP detection
[2] = target: human Claudin 18.2 expressed on cells (HEK293/human Claudin 18.2; CHO-K1/human Claudin 18.2) (human) (UniProt P56856); assay: flow cytometry on HEK293 cells expressing human Claudin 18.2
[3] = target: recombinant human Claudin 18.2 protein (GenScript, Z03504) (human) (UniProt P56856); assay: competition ELISA on coated recombinant human Claudin 18.2; unlabelled IMAB362 against biotinylated IMAB362 (0.72 µg/ml)
[4] = target: human Claudin 18.2 expressed on cells (HEK293/human Claudin 18.2; CHO-K1/human Claudin 18.2) (human) (UniProt P56856); assay: cell-based or functional assay
[5] = target: recombinant human Claudin 18.2 protein (GenScript, Z03504) (human) (UniProt P56856); assay: SPR Biacore 8K, antibody captured via Fc, human Claudin 18.2 protein as analyte

EC50 [1]	EC50 [2]	IC50 [3]	ADCC reporter gene assay (CHO-K1/Claudin 18.2 target cells, GS-J2C/CD16A 158V effector cells): EC50 [4]	ADCC reporter gene assay (CHO-K1/Claudin 18.2 target cells, GS-J2C/CD16A 158V effector cells): Top [4]	CDC on CHO-K1/human Claudin 18.2 cells: Top [4]	Kd [5]	CDC on CHO-K1/human Claudin 18.2 cells: EC50 [4]	Substance
1.53 nM	7.8 nM	1.79 nM	0.758 nM	213000	93%	39.3 nM		Zolbetuximab (IMAB362, HuIgG1) (antibody)
			352 nM	90500	5.61%		23.7	Human IgG1 (antibody)
